The results in this text go back to paper PMC2148136.

The target of this test is Gin4p kinase domain (codons 1-294), DBD fusion (S. cerevisiae) (UniProt Q12263). Kind of test: two-hybrid.
Chain of UniProt Q12263 (Q12263 1-294): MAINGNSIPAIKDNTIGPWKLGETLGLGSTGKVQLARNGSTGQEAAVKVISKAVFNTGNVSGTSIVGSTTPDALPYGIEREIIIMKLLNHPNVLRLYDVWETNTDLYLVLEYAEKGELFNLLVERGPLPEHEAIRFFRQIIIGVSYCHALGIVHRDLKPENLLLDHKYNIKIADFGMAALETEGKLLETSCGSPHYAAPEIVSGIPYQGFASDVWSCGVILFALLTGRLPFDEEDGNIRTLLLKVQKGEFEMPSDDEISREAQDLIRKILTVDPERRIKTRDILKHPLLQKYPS

“COOH-terminal region of Cdc3p (the 101 COOH-terminal amino acids), AD fusion (domain or fragment)” registered a units of β-galactosidase activity (units of β-galactosidase activity) of 727.
